What is called stoichiometry N is the number of molecules, sites or subunits per partner or assembly.

This series concerns the molecule itself. Kind of series: SEC-MALS. In general terms: In gel filtration, larger molecules generally elute earlier.

B1: MSMEG_0317-His (wild type, made in E. coli) (natural protein)
chain: MNRAVALRIAACGLLGLGAALLIAALLLTTYTKGKIAKIPLDIDTSLVSDGTATAFDPDSLVAERFKIDRDVPVALQQQMSVEAPSNADVVTFQVGTTLRRTDRQQDAGLLLALVDTVTMNRNTAEAVSSENNPGGAVQKPRAIEDEKPPTNIALPHEGLTYRFPFDTEKKTYPFFDPIAQKAFDANYDGEEDVNGLTTYRFVQNVGYDADGKLADPIKYSSLYEDDADASVTARAEVWGVPGEPDESITMDRFYAASRTFWVDPVSGTIVKSEEHGYQYYAREALKPEVTYVDFKVTTNEESVESQVAAASDERDRIALWTRILPITFTALGLVSLVGGAVLGSFALRTESTLIDPGLDTADHGFFDTQGIQVPGAEAKTEKLPAQRPTDLPPDRPI
On to B1, for which the “stoichiometry N” value is 2.

The record behind these values is doi:10.1101/2023.05.02.539095 (bioRxiv, 2023).
